Measured values reported in patent US20240424125A1.

Columns and labels:
[1] = molecular target: human FRα on cells (human) (UniProt P15328); experiment: flow cytometry competition on H2110 cells; competitor: v23924; first of two values
[2] = molecular target: human FRα on cells (human) (UniProt P15328); experiment: flow cytometry competition on H2110 cells; competitor: v23924; second of two values
[3] = molecular target: human FRα on cells (human) (UniProt P15328); experiment: flow cytometry competition on H2110 cells; competitor: Farletuzumab; first of two values
[4] = molecular target: human FRα on cells (human) (UniProt P15328); experiment: flow cytometry competition on H2110 cells; competitor: Farletuzumab; second of two values
[5] = molecular target: human FRα on cells (human) (UniProt P15328); experiment: flow cytometry competition on H2110 cells; competitor: Mirvetuximab (self); first of two values
[6] = molecular target: human FRα on cells (human) (UniProt P15328); experiment: flow cytometry competition on H2110 cells; competitor: Mirvetuximab (self); second of two values
[7] = molecular target: human FRα on cells (human) (UniProt P15328); experiment: flow cytometry competition on H2110 cells; competitor: Mirvetuximab; first of two values
[8] = molecular target: human FRα on cells (human) (UniProt P15328); experiment: flow cytometry competition on H2110 cells; competitor: Mirvetuximab; second of two values
[9] = molecular target: human FRα on cells (human) (UniProt P15328); experiment: flow cytometry competition on H2110 cells; competitor: Farletuzumab (self); first of two values
[10] = molecular target: human FRα on cells (human) (UniProt P15328); experiment: flow cytometry competition on H2110 cells; competitor: Farletuzumab (self); second of two values

Sequence of human FRα on cells (human) (P15328 25-234 limits assumed): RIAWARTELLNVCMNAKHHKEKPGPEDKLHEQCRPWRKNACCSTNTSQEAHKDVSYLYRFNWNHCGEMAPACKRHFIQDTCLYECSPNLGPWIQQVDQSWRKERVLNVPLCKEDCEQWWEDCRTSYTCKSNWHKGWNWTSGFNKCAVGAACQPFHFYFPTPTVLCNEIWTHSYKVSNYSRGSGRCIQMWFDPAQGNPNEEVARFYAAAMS

| % Competition Binding [1] | % Competition Binding [2] | % Competition Binding [3] | % Competition Binding [4] | % Competition Binding [5] | % Competition Binding [6] | % Competition Binding [7] | % Competition Binding [8] | % Competition Binding [9] | % Competition Binding [10] | Binder |
| --- | --- | --- | --- | --- | --- | --- | --- | --- | --- | --- |
| 13% | 7% | 99% | 100% | 100% | 98% | – | – | – | – | mirvetuximab (v17716) (antibody, part only; not given: constant regions, V domains shown, not shown: another chain or arm of the molecule) VH: QVQLVQSGAEVVKPGASVKISCKASGYTFTGYFMNWVKQSPGQSLEWIGRIHPYDGDTFYNQKFQGKATLTVDKSSNTAHMELLSLTSEDFAVYYCTRYDGSRAMDYWGQGTTVTVSS VL: DIVLTQSPLSLAVSLGQPAIISCKASQSVSFAGTSLMHWYHQKPGQQPRLLIYRASNLEAGVPDRFSGSGSKTDFTLTISPVEAEDAATYYCQQSREYPYTFGGGTKLEIK |
| 99% | 72% | – | – | – | – | 91% | 75% | 98% | 100% | farletuzumab (v31629) (antibody, part only; not given: constant regions, V domains shown, not shown: another chain or arm of the molecule) VH: EVQLVESGGGVVQPGRSLRLSCSASGFTFSGYGLSWVRQAPGKGLEWVAMISSGGSYTYYADSVKGRFAISRDNAKNTLFLQMDSLRPEDTGVYFCARHGDDPAWFAYWGQGTPVTVSS VL: DIQLTQSPSSLSASVGDRVTITCSVSSSISSNNLHWYQQKPGKAPKPWIYGTSNLASGVPSRFSGSGSGTDYTFTISSLQPEDIATYYCQQWSSYPYMYTFGQGTKVEIK |
